Patent publication US5693759

Columns and labels:
[1] = target: T1, TRC-1 (p21SNF1/JunB heteromultimer) (Homo sapiens) (UniProt Q9NR55+P17275); assay: competition; settings: vs 12.5-fold for s2
T1 sequence 1: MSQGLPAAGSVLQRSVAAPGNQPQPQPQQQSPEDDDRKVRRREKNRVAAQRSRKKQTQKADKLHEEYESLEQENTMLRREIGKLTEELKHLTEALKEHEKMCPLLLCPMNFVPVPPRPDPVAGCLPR
T1 sequence 2: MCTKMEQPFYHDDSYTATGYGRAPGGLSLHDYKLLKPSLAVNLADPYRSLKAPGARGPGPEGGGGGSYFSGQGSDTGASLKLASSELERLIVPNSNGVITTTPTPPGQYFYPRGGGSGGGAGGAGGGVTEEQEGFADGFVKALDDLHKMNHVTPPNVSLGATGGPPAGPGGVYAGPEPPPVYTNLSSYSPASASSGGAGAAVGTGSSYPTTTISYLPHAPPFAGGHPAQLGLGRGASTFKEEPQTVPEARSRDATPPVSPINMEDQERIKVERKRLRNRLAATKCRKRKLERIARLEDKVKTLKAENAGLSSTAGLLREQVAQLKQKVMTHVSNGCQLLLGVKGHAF

[2] = target: T1, TRC-1 (p21SNF1/JunB heteromultimer) (Homo sapiens); assay: EMSA; settings: self-competition; abolished at 100-fold
[3] = target: Tax-response complex-1 (TRC-1), purified from SLB-I nuclear extract (human) (UniProt P17275)

| Substance | binding signal (fold excess for ~55% competition) [1] | also measured |
| --- | --- | --- |
| HTLV-1 LTR 21-bp repeat site1 (s1) | 100 |  |
| HTLV-1 LTR 21-bp repeat site2 (s2) |  | binding signal (% competition at 12.5-fold excess) [2]: 55 |
| HTLV-1 LTR 21-bp repeat site3 (s3) | 50 |  |
| HTLV-1 Tax protein, expressed in bacteria as a His6 fusion at its carboxy terminus (from UniProt P03409) |  | binding of purified TRC-1 to site2 probe in EMSA, phosphorimage analysis [3]: 2.5 to 6.5 fold |
